Assay [1] addresses T1, human complement component C3 (human, UniProt P01024 23-667; P01024 672-1663).
T1 construct: Purified human C3 (Complement Technologies); also called human C3
Kind of assay: SPR (Biacore), antibody captured, C3 injected, 37 C. Background: Surface plasmon resonance follows binding to a sensor surface in real time, without labels.

Assay [2] has as its target T2, cynomolgus monkey complement component C3 (cynomolgus monkey, UniProt P01024 24-1663 (human entry)).
T2 construct: In the hemolysis assays cyno serum was the source of C3; also called cyno C3
Described as above.

Assay [3] deals with T1, human complement component C3. In words: SPR (Biacore), antibody captured by anti-Fc on CM5 chip, C3 injected 0.62-40 nM, 37 C.
Assay [4] has as its target T2, cynomolgus monkey complement component …. The assay is described as above.
In assay [5] the target is T1, human complement component C3. Kind of assay: cell-based or functional assay.
For assay [6] the target is unchanged. Kind of assay: SPR (Biacore).
For assay [7] the target is unchanged. In words: SPR (Biacore), compared with Hz38G10.

Numbering of substitutions follows the chain as printed. Numbers in names are those of the source.

T2 sequence (P01024 other isoform, or with tags, fused parts or gaps): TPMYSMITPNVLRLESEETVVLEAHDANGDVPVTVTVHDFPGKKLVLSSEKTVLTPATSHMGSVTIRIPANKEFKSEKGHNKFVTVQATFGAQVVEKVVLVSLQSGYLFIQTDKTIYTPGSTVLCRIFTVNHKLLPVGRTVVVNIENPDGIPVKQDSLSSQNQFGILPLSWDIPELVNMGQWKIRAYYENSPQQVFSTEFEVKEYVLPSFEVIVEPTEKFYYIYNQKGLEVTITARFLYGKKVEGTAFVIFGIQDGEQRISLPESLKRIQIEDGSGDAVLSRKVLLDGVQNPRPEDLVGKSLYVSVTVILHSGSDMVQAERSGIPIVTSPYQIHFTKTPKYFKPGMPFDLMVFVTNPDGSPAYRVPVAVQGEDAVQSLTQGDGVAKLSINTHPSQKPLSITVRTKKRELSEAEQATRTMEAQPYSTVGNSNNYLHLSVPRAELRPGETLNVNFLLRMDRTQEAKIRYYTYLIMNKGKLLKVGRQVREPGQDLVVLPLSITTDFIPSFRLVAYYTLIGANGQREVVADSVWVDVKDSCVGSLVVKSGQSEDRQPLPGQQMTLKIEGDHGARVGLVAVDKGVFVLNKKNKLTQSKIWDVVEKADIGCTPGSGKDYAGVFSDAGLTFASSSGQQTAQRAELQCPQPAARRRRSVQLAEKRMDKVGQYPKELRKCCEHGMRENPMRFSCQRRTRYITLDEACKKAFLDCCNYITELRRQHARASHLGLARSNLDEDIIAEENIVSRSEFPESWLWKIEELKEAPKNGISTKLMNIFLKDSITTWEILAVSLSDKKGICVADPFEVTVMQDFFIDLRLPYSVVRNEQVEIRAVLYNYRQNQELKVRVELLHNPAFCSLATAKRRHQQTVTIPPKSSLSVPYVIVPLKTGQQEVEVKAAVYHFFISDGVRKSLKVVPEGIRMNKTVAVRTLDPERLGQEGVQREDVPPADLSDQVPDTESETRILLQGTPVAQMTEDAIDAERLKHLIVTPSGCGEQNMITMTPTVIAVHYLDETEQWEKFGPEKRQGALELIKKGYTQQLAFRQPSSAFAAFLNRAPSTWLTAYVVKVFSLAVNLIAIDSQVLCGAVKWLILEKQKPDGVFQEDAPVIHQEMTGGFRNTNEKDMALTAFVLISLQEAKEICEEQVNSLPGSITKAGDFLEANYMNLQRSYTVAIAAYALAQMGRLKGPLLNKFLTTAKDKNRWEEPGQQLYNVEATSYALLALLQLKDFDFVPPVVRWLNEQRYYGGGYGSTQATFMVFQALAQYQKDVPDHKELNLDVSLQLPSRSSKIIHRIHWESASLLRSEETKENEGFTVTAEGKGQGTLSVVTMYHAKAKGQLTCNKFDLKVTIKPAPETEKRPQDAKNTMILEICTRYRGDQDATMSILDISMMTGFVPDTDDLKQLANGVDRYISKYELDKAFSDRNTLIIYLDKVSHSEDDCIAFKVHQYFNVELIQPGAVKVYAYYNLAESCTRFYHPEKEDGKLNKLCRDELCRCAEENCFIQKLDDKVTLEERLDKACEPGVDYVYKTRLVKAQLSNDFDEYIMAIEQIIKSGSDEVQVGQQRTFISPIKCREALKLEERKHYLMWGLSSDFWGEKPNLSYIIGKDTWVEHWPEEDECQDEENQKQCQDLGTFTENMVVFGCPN
T1 sequence (P01024 23-667, chain 1 of 2): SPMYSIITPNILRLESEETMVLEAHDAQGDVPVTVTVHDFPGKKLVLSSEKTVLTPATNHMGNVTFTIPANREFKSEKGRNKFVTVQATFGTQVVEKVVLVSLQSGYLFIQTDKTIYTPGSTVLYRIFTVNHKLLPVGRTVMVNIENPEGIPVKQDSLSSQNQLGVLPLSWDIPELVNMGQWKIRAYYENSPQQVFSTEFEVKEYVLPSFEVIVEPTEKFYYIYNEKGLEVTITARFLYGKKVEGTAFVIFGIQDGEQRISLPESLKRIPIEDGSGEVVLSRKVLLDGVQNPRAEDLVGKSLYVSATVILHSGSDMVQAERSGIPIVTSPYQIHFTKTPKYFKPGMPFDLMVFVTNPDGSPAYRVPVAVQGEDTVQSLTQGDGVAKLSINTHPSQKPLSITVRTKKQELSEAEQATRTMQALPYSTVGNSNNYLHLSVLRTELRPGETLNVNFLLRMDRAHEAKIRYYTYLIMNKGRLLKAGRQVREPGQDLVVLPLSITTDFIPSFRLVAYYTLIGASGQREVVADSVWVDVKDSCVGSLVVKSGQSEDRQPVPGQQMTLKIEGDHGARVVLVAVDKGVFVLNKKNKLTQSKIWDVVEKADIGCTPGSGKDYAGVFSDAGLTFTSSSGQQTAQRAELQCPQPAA
T1 sequence (P01024 672-1663, chain 2 of 2): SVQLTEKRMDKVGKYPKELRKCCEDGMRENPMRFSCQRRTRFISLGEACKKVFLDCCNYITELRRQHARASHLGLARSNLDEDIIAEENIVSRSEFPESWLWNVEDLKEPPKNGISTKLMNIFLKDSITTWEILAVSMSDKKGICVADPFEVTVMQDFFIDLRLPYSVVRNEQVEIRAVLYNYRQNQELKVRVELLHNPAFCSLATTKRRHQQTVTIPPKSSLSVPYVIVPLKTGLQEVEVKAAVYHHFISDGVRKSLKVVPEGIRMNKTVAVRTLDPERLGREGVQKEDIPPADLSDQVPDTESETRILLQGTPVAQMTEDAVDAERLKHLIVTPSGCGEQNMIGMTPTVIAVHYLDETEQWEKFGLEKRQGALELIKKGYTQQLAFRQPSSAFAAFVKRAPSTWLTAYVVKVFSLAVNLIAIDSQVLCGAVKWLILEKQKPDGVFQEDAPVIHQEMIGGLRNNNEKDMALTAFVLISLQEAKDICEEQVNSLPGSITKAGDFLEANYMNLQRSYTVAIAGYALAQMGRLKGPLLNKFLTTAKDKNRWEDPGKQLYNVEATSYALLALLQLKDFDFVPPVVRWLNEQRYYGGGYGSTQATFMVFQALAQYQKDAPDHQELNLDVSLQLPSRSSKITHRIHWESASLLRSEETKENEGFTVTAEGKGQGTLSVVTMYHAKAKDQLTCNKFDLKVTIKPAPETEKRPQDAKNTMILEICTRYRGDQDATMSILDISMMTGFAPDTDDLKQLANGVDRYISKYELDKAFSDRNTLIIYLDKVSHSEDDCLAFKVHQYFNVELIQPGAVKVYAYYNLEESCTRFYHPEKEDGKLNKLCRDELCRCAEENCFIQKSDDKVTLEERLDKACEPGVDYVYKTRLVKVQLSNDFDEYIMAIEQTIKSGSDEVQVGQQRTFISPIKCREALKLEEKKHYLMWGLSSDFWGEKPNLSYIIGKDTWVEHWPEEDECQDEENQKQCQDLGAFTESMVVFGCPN

B1: antibody 38G10 (antibody, V domains shown)
VH: EVQLQQSGPELVKPGDSVKMSCKASGYTFTDFYMDWVKQSHGKSLEWIGYIYPHNGGTTYNQNFTGKATLTVDKSSNTAYMELHSLTSEDSAVYYCARRGGFDFDYWGQGTTLTVSS
VL: NIVMTQSPKSMSLSVGERVTLRCKASENVDTYVSWYQQKPEQSPKLLIYGASNRYTGVPDRFTGSGSATEFTLTISSVQAEDLVGYHCGQSHSYPLTFGAGTKLELK
notes: Mouse hybridoma monoclonal antibody; also called parental 38G10 antibody
For the molecule B1, the Kd in assay [1] was approximately 0.1 nM; in assay [2], approximately 0.1 nM; in assay [3] it was 0.19 nM; in assay [4] it was 0.16 nM.

B2: antibody Hz38G10 (antibody, human IgG1, kappa, V domains shown)
VH: QVQLVQSGAEVKKPGASVKVSCKASGYTFTDFYMDWVRQAPGQRLEWMGYIYPHNGGTTYNQQFTGRVTITVDKSASTAYMELSSLRSEDTAVYYCARRGGFDFDYWGQGTLVTVSS
VL: DIQMTQSPSSLSASVGDRVTITCKASENVDTYVSWYQQKPGKAPKLLIYGASNRYTGVPSRFSGSGSGTDFTFTISSLQPEDIATYHCGQSHSYPLTFGQGTKLEIKR
notes: also called humanized 38G10; Hz38G10 intact antibody
As for B2, the Kd stood at 0.3 nM in assay [1] and 1.8 nM in assay [2]. For the same molecule, in assay [5], the “alternative pathway hemolysis assay, fold against COMP or COMP-PEG” value was approximately 10 fold.

B3: variant of antibody Hz38G10 with a N55D mutation in the heavy chain CDR2 (antibody, V domains shown)
VH: B2 VH with N55D
VL: DIQMTQSPSSLSASVGDRVTITCKASENVDTYVSWYQQKPGKAPKLLIYGASNRYTGVPSRFSGSGSGTDFTFTISSLQPEDIATYHCGQSHSYPLTFGQGTKLEIK
notes: Mimics a fully deamidated molecule; also called Hz38G10 N55D variant
Turning to B3, the binding result in assay [6] is recorded as “binds”.

B4: antibody Hz38G10(N55E) (antibody, V domains shown)
VH: B2 VH with N55E
VL: B3 VL
With B4, in assay [7], the binding result is reported as “binds”.

B5: antibody Hz38G10(G56A) (antibody, human IgG1, kappa, V domains shown)
VH: B2 VH with G56A
VL: B2 VL
As for B5, in assay [7], the binding result is “binds”.

B6: antibody Hz38G10(G56T) (antibody, V domains shown)
VH: B2 VH with G56T
VL: B3 VL
On to B6, for which the binding result in assay [7] is “binds”.

B7: antibody Hz38G10(N55Q) (antibody, V domains shown)
VH: B2 VH with N55Q
VL: B3 VL
Take B7: in assay [7], the binding result was “binds”.

B8: Hz38G10 dsscFv (VL-linker-VH disulfide-stabilized scFv) (scFv)
scFv: MDIQMTQSPSSLSASVGDRVTITCKASENVDTYVSWYQQKPGKAPKLLIYGASNRYTGVPSRFSGSGSGTDFTFTISSLQPEDIATYHCGQSHSYPLTFGCGTKLEIKGGGGSGGGGSGGGGSQVQLVQSGAEVKKPGASVKVSCKASGYTFTDFYMDWVRQAPGQCLEWMGYIYPHNGGTTYNQQFTGRVTITVDKSASTAYMELSSLRSEDTAVYYCARRGGFDFDYWGQGTLVTVSS
notes: scFv with an engineered disulfide bond between VL and VH; also called Hz38G10 VL-linker-VH dsscFv
Turning to B8, the binding result in assay [6] is “binds”.

What is called Kd is a measure of binding affinity in units of concentration.

The record behind these values is patent publication WO2021226442A2 (dated 2021).
